Measurements from patent publication US20240117018A1.

Key:
Experiment in all cases: cell-based or functional assay
[1] = biological target: HIV-1 Env pseudovirus THRO4156.18 (HIV-1)
[2] = biological target: HIV-1 Env pseudovirus 1012_11_TC21_3257 (HIV-1)
[3] = biological target: HIV-1 Env pseudovirus SC05_8C11_2344 (HIV-1)
[4] = biological target: HIV-1 Env pseudovirus MS208.A1 (HIV-1)
[5] = biological target: HIV-1 Env pseudovirus 7030102001E5(Rev-) (HIV-1)
[6] = biological target: HIV-1 Env pseudovirus Q23.17 (HIV-1)
[7] = biological target: HIV-1 Env pseudovirus 235-47 (HIV-1)
[8] = biological target: HIV-1 Env pseudovirus QH0692.42 (HIV-1)
[9] = biological target: HIV-1 Env pseudovirus Q769.d22 (HIV-1)
[10] = biological target: HIV-1 Env pseudovirus C1080.c03 (HIV-1)
[11] = biological target: HIV-1 Env pseudovirus T250-4 (HIV-1)
[12] = biological target: HIV-1 Env pseudovirus Du422.1 (HIV-1)
[13] = biological target: HIV-1 Env pseudovirus 3016.v5.c45 (HIV-1)
[14] = biological target: HIV-1 Env pseudovirus T251-18 (HIV-1)
[15] = biological target: HIV-1 Env pseudovirus P1981_C5_3 (HIV-1)
[16] = biological target: HIV-1 Env pseudovirus ZM247v1(Rev-) (HIV-1)
[17] = biological target: HIV-1 Env pseudovirus 1006_11_C3_1601 (HIV-1)
[18] = biological target: HIV-1 Env pseudovirus X2131_C1_B5 (HIV-1)
[19] = biological target: HIV-1 Env pseudovirus Ce2060_G9 (HIV-1)
[20] = biological target: HIV-1 Env pseudovirus P0402_c2_11 (HIV-1)
[21] = biological target: HIV-1 Env pseudovirus 6952.v1.c20 (HIV-1)
[22] = biological target: Env of HIV-1 pseudovirus 1054_07_TC4_1499 (HIV-1)
[23] = biological target: Env of HIV-1 pseudovirus SC05_8C11_2344 (HIV-1)
[24] = biological target: Env of HIV-1 pseudovirus Q461.e2 (HIV-1)
[25] = biological target: Env of HIV-1 pseudovirus ZM214M.PL15 (HIV-1)
[26] = biological target: Env of HIV-1 pseudovirus Du422.1 (HIV-1)
[27] = biological target: Env of HIV-1 pseudovirus Q23.17 (HIV-1)
[28] = biological target: Env of HIV-1 pseudovirus 246F C1G (HIV-1)
[29] = biological target: Env of HIV-1 pseudovirus Ce0682_E4 (HIV-1)
[30] = biological target: Env of HIV-1 pseudovirus Q259.d2.17 (HIV-1)
[31] = biological target: Env of HIV-1 pseudovirus T257-31 (HIV-1)
[32] = biological target: Env of HIV-1 pseudovirus Q769.d22 (HIV-1)
[33] = biological target: Env of HIV-1 pseudovirus HIV-0013095-2.11 (HIV-1)
[34] = biological target: HIV-1 Env pseudovirus CNE20 (HIV-1)
[35] = biological target: HIV-1 Env pseudovirus CNE52 (HIV-1)

VRC01 (antibody)
IC80 (Titer in TZM.bl cells) [1]: 23 µg/mL | IC50 (Titer in TZM.bl cells) [2]: 0.12 µg/mL | IC80 (Titer in TZM.bl cells) [2]: 0.32 µg/mL | IC50 (Titer in TZM.bl cells) [3]: 0.64 µg/mL | IC80 (Titer in TZM.bl cells) [3]: 1.91 µg/mL | IC50 (Titer in TZM.bl cells) [4]: 0.1 µg/mL | IC80 (Titer in TZM.bl cells) [4]: 0.46 µg/mL | IC50 (Titer in TZM.bl cells) [5]: 0.54 µg/mL | IC80 (Titer in TZM.bl cells) [5]: 2.08 µg/mL | IC50 (Titer in TZM.bl cells) [6]: 0.09 µg/mL | IC80 (Titer in TZM.bl cells) [6]: 0.261 µg/mL | IC50 (Titer in TZM.bl cells) [7]: 0.04 µg/mL | IC80 (Titer in TZM.bl cells) [7]: 0.17 µg/mL | IC50 (Titer in TZM.bl cells) [8]: 1.5 µg/mL | IC80 (Titer in TZM.bl cells) [8]: 4.8 µg/mL | IC50 (Titer in TZM.bl cells) [9]: 0.08 µg/mL | IC80 (Titer in TZM.bl cells) [9]: 0.29 µg/mL | IC50 (Titer in TZM.bl cells) [10]: 3.4 µg/mL | IC80 (Titer in TZM.bl cells) [10]: 14.4 µg/mL | IC50 (Titer in TZM.bl cells) [11]: > 50 µg/mL | IC80 (Titer in TZM.bl cells) [11]: > 50 µg/mL | IC50 (Titer in TZM.bl cells) [12]: > 50 µg/mL | IC80 (Titer in TZM.bl cells) [12]: > 50 µg/mL | IC50 (Titer in TZM.bl cells) [13]: 0.16 µg/mL | IC80 (Titer in TZM.bl cells) [13]: 0.42 µg/mL | IC80 (Titer in TZM.bl cells) [14]: 11.2 µg/mL | IC50 (Titer in TZM.bl cells) [15]: 0.46 µg/mL | IC80 (Titer in TZM.bl cells) [15]: 1.26 µg/mL | IC50 (Titer in TZM.bl cells) [16]: 0.35 µg/mL | IC80 (Titer in TZM.bl cells) [16]: 1.29 µg/mL | IC50 (Titer in TZM.bl cells) [17]: 0.15 µg/mL | IC80 (Titer in TZM.bl cells) [17]: 0.39 µg/mL | IC50 (Titer in TZM.bl cells) [18]: 0.51 µg/mL | IC80 (Titer in TZM.bl cells) [18]: 1.54 µg/mL | IC50 (Titer in TZM.bl cells) [19]: 0.29 µg/mL | IC80 (Titer in TZM.bl cells) [19]: 1.48 µg/mL | IC50 (Titer in TZM.bl cells) [20]: 0.21 µg/mL | IC80 (Titer in TZM.bl cells) [20]: 0.59 µg/mL | IC50 (Titer in TZM.bl cells) [21]: 0.04 µg/mL | IC80 (Titer in TZM.bl cells) [21]: 0.12 µg/mL

10-1074 (antibody)
IC50 [22]: 0.129 µg/mL | IC80 [22]: 0.563 µg/mL | IC50 [23]: 0.052 µg/mL | IC80 [23]: 0.123 µg/mL | IC50 [24]: > 50 µg/mL | IC80 [24]: > 50 µg/mL | IC50 [25]: 0.174 µg/mL | IC80 [25]: 2.37 µg/mL | IC50 [26]: 0.045 µg/mL | IC80 [26]: 0.166 µg/mL | IC50 [27]: 0.006 µg/mL | IC80 [27]: 0.021 µg/mL | IC50 [28]: 0.022 µg/mL | IC80 [28]: 0.111 µg/mL | IC50 [29]: > 50 µg/mL | IC80 [29]: > 50 µg/mL | IC50 [30]: > 50 µg/mL | IC80 [30]: > 50 µg/mL | IC50 [31]: > 50 µg/mL | IC80 [31]: > 50 µg/mL | IC50 [32]: > 50 µg/mL | IC80 [32]: > 50 µg/mL | IC50 [33]: > 50 µg/mL | IC80 [33]: > 50 µg/mL

N49P7.2 (antibody)
IC50 [1]: 6.29 µg/mL | IC80 [1]: 33.3 µg/mL | MPI [1]: 94 | IC50 [2]: 0.06 µg/mL | IC80 [2]: 0.285 µg/mL | MPI [2]: 100 | IC50 [3]: 0.326 µg/mL | IC80 [3]: 1.14 µg/mL | MPI [3]: 100 | IC50 [4]: 0.186 µg/mL | IC80 [4]: 0.966 µg/mL | MPI [4]: 100 | IC50 [5]: 0.313 µg/mL | IC80 [5]: 1.03 µg/mL | MPI [5]: 100 | IC50 [6]: 0.051 µg/mL | IC80 [6]: 0.2 µg/mL | MPI [6]: 100 | IC50 [8]: 1.26 µg/mL | IC80 [8]: 4.42 µg/mL | MPI [8]: 100 | IC50 [9]: 0.029 µg/mL | IC80 [9]: 0.14 µg/mL | MPI [9]: 100 | IC50 [12]: > 50 µg/mL | IC80 [12]: > 50 µg/mL | MPI [12]: 22 | IC50 [34]: 0.119 µg/mL | IC80 [34]: 0.574 µg/mL | MPI [34]: 99 | IC50 [16]: 0.177 µg/mL | IC80 [16]: 2.5 µg/mL | MPI [16]: 96 | IC50 [17]: 0.085 µg/mL | IC80 [17]: 0.237 µg/mL | MPI [17]: 100 | IC50 [19]: 0.821 µg/mL | IC80 [19]: 2.81 µg/mL | MPI [19]: 100 | IC50 [35]: 0.03 µg/mL | IC80 [35]: 0.088 µg/mL | MPI [35]: 100

PG9 (antibody)
IC50 [22]: > 50 µg/mL | IC80 [22]: > 50 µg/mL | IC50 [23]: 0.892 µg/mL | IC80 [23]: 4.28 µg/mL | IC50 [24]: 1.48 µg/mL | IC80 [24]: 8.72 µg/mL | IC50 [25]: > 50 µg/mL | IC80 [25]: > 50 µg/mL | IC50 [26]: 0.614 µg/mL | IC80 [26]: 10.4 µg/mL | IC50 [27]: 0.027 µg/mL | IC80 [27]: 0.082 µg/mL | IC50 [28]: > 50 µg/mL | IC80 [28]: > 50 µg/mL | IC50 [29]: 0.196 µg/mL | IC80 [29]: 0.698 µg/mL | IC50 [30]: 0.029 µg/mL | IC80 [30]: 1.38 µg/mL | IC50 [31]: 0.037 µg/mL | IC80 [31]: 0.124 µg/mL | IC50 [32]: 0.025 µg/mL | IC80 [32]: 0.068 µg/mL | IC50 [33]: 0.01 µg/mL | IC80 [33]: 0.03 µg/mL
